Tests used:
[1] = tested on: Rabbit Reticulocyte Lysate; assay: In vitro screening in rabbit reticulocyte lysates, luciferase mRNA translation; assay type: biochemical; conditions: 250 ng luciferase mRNA, 60 minutes, 30° C.
Method: The diluted luciferase was added to 40 ul of freshly prepared Rabbit Reticulocyte Lysate and the in vitro translation reaction was done in a standard 1.5 mL polypropylene reaction tube (Thermo Fisher Scientific, Waltham, Mass.) at 30° C. in a dry heating block. The translation assay was done with the Rabbit Reticulocyte Lysate (nuclease-treated) kit (Promega, Madison, Wis.) according to the manufacturer's instructions. The reaction buffer was supplemented with a one-to-one blend of provided amino acid stock solutions devoid of either Leucine or Methionine resulting in a reaction mix containing sufficient amounts of both amino acids to allow effective in vitro translation.
After 60 minutes of incubation, the reaction was stopped by placing the reaction tubes on ice. Aliquots of the in vitro translation reaction containing luciferase modified RNA were transferred to white opaque polystyrene 96-well plates (Corning, Manassas, Va.) and combined with 100 ul complete luciferase assay solution (Promega, Madison, Wis.). The volumes of the in vitro translation reactions were adjusted or diluted until no more than 2 mio relative light units (RLUs) per well were detected for the strongest signal producing samples and the RLUs for each chemistry tested are shown in Table 20. The plate reader was a BioTek Synergy H1 (BioTek, Winooski, Vt.). The background signal of the plates without reagent was about 200 relative light units per well.

HeLa cells [2] = assay: In vitro screening in HeLa cells, luciferase modified RNA; assay type: cell-based, human; conditions: HeLa cells, 83 ng luciferase modified RNA, 18 to 22 hours
Method: The day before transfection, 20,000 HeLa cells (ATCC no. CCL-2; Manassas, Va.) were harvested by treatment with Trypsin-EDTA solution (LifeTechnologies, Grand Island, N.Y.) and seeded in a total volume of 100 ul EMEM medium (supplemented with 10% FCS and 1× Glutamax) per well in a 96-well cell culture plate (Corning, Manassas, Va.). The cells were grown at […] in 5% CO2 atmosphere overnight. […] Lipofectamine 2000 (LifeTechnologies, Grand Island, N.Y.) was used as transfection reagent and 0.2 ul were diluted in 10 ul final volume of OPTI-MEM. After 5 minutes of incubation at room temperature, both solutions were combined and incubated an additional 15 minute at room temperature. Then the 20 ul combined solution was added to the 100 ul cell culture medium containing the HeLa cells and incubated at room temperature.
After 18 to 22 hours of incubation cells expressing luciferase were lysed with 100 ul of Passive Lysis Buffer (Promega, Madison, Wis.) according to manufacturer instructions. Aliquots of the lysates were transferred to white opaque polystyrene 96-well plates (Corning, Manassas, Va.) and combined with 100 ul complete luciferase assay solution (Promega, Madison, Wis.). The lysate volumes were adjusted or diluted until no more than 2 mio relative light units (RLU) per well were detected for the strongest signal producing samples and the RLUs for each chemistry tested are shown in Table 19. The plate reader was a BioTek Synergy H1 (BioTek, Winooski, Vt.). The background signal of the plates without reagent was about 200 relative light units per well.

rabbit reticulysates = assay: G-CSF modified mRNA in rabbit reticulysates, G-CSF ELISA; assay type: biochemical; conditions: 250 ng of modified mRNA
Method: (§1) To assess the activity of all our different chemical modifications in the context of a second open reading frame, we replicated experiments previously conducted using luciferase mRNA, with human G-CSF mRNA. […] The mutant T7 polymerase was obtained commercially (Durascribe® T7 Transcription kit (Cat. No. DS010925) (Epicentre®, Madison, Wis.).
(§2) The modified RNA in Tables 27 and 28 were transfected in vitro in HeLa cells or added to rabbit reticulysates (250 ng of modified mRNA) as indicated. […] In Table 27, “NT” means not tested.

HeLa cells [3] = assay: G-CSF modified mRNA transfected in HeLa cells, G-CSF ELISA; assay type: cell-based, human; conditions: HeLa cells, ELISA
Method: as §1, §2

[4] = tested on: peripheral blood mononuclear cells (PBMC); assay: In vitro screening in PBMC: G-CSF protein expression by ELISA; assay type: cell-based, human
Procedure, shortened: (§3)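 ELISA was the detection method, applied to harvested supernatant that had been held frozen beforehand.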

[5] = tested on: tumor necrosis factor alpha (TNF-α); assay: In vitro screening in PBMC: tumor necrosis factor alpha induction by ELISA; assay type: cell-based, human
Excerpt: The supernatant was harvested and stored frozen until analyzed by ELISA to determine the G-CSF protein expression, and the induction of the cytokines interferon-alpha (IFN-α) and tumor necrosis factor alpha (TNF-α).

interferon-alpha (IFN-α) = assay: In vitro screening in PBMC: interferon-alpha induction by ELISA; assay type: cell-based, human
Procedure, shortened: as §3

[6] = PBMC Donor 1, 500 ng G-CSF mRNA
[7] = PBMC Donor 1, 500 ng G-CSF mRNA, listed as 5-methylcytosine and pseudouridine (2nd set)
[8] = PBMC Donor 1, 500 ng G-CSF mRNA, listed as 5-methylcytosine and pseudouridine (3rd set)
[9] = PBMC Donor 1, 500 ng G-CSF mRNA, listed as 5-methylcytosine and pseudouridine (4th set)
[10] = PBMC Donor 2, 500 ng G-CSF mRNA
[11] = PBMC Donor 2, 500 ng G-CSF mRNA, listed as 5-methylcytosine and pseudouridine (2nd set)
[12] = PBMC Donor 2, 500 ng G-CSF mRNA, listed as 5-methylcytosine and pseudouridine (3rd set)
[13] = PBMC Donor 2, 500 ng G-CSF mRNA, listed as 5-methylcytosine and pseudouridine (4th set)
[14] = PBMC Donor 3, 500 ng G-CSF mRNA
[15] = PBMC Donor 3, 500 ng G-CSF mRNA, listed as 5-methylcytosine and pseudouridine (2nd set)
[16] = PBMC Donor 3, 500 ng G-CSF mRNA, listed as 5-methylcytosine and pseudouridine (3rd set)
[17] = PBMC Donor 3, 500 ng G-CSF mRNA, listed as 5-methylcytosine and pseudouridine (4th set)

5-methylcytidine (m5c): Luciferase mRNA (SEQ ID NO: 409) modified with 5-methylcytidine
RLU [1]: 152,989 RLU
RLU (HeLa cells [2]): 138,428 RLU

N6-methyladenosine (m6a): Luciferase mRNA (SEQ ID NO: 409) modified with N6-methyladenosine
RLU [1]: 398 RLU
RLU (HeLa cells [2]): 534 RLU

Luciferase control: luciferase control mRNA (SEQ ID NO: 409) fully modified with 5-methylcytosine and N1-methylpseudouridine [reference compound]
G-CSF protein (pg/ml) Rabbit reticulysates cells (rabbit reticulysates): 0 pg/mL

N4-acetylcytidine (ac4c): Luciferase mRNA (SEQ ID NO: 409) modified with N4-acetylcytidine
RLU [1]: 60,879 RLU
RLU (HeLa cells [2]): 235,412 RLU

5 (3-1E propenyl Amino) uridine: Luciferase mRNA (SEQ ID NO: 409) modified with 5 (3-1E propenyl Amino) uridine
RLU [1]: 211 RLU
RLU (HeLa cells [2]): 446 RLU

5 (2 carbovinyl) uridine: Luciferase mRNA (SEQ ID NO: 409) modified with 5 (2 carbovinyl) uridine
RLU [1]: 225 RLU
RLU (HeLa cells [2]): 531 RLU

B1: 5-methylcytosine and pseudouridine (1^st set): G-CSF mRNA (SEQ ID NO: 408) fully modified with 5-methylcytosine and pseudouridine; repeated sets/tests (nucleic acid)
chain: GGGAAAUAAGAGAGAAAAGAAGAGUAAGAAGAAAUAUAAGAGCCACCAUGGCCGGUCCCGCGACCCAAAGCCCCAUGAAACUUAUGGCCCUGCAGUUGCUGCUUUGGCACUCGGCCCUCUGGACAGUCCAAGAAGCGACUCCUCUCGGACCUGCCUCAUCGUUGCCGCAGUCAUUCCUUUUGAAGUGUCUGGAGCAGGUGCGAAAGAUUCAGGGCGAUGGAGCCGCACUCCAAGAGAAGCUCUGCGCGACAUACAAACUUUGCCAUCCCGAGGAGCUCGUACUGCUCGGGCACAGCUUGGGGAUUCCCUGGGCUCCUCUCUCGUCCUGUCCGUCGCAGGCUUUGCAGUUGGCAGGGUGCCUUUCCCAGCUCCACUCCGGUUUGUUCUUGUAUCAGGGACUGCUGCAAGCCCUUGAGGGAAUCUCGCCAGAAUUGGGCCCGACGCUGGACACGUUGCAGCUCGACGUGGCGGAUUUCGCAACAACCAUCUGGCAGCAGAUGGAGGAACUGGGGAUGGCACCCGCGCUGCAGCCCACGCAGGGGGCAAUGCCGGCCUUUGCGUCCGCGUUUCAGCGCAGGGCGGGUGGAGUCCUCGUAGCGAGCCACCUUCAAUCAUUUUUGGAAGUCUCGUACCGGGUGCUGAGACAUCUUGCGCAGCCGUGAAGCGCUGCCUUCUGCGGGGCUUGCCUUCUGGCCAUGCCCUUCUUCUCUCCCUUGCACCUGUACCUCUUGGUCUUUGAAUAAAGCCUGAGUAGGAAG
modifications: 5-methylcytosine/pseudouridine modified; Description of Artificial Sequence: Synthetic Transcript Sequence
notes: repeated sets/tests
G-CSF protein (pg/ml) Rabbit reticulysates cells (rabbit reticulysates; listed as 5-methylcytosine/pseudouridine, Test A): 119,750 pg/ml
G-CSF protein (pg/ml) Rabbit reticulysates cells (rabbit reticulysates; listed as 5-methylcytosine/pseudouridine, Test B): 57,875 pg/ml
G-CSF protein (pg/ml) Rabbit reticulysates cells (rabbit reticulysates; listed as 5-methylcytosine/pseudouridine, Test C): 49,250 pg/ml
G-CSF protein (pg/ml) Rabbit reticulysates cells (rabbit reticulysates; listed as 5-methylcytosine/pseudouridine, Test D): 47,750 pg/ml
G-CSF protein (pg/ml) HeLa cells (HeLa cells [3]; G-CSF mRNA, listed as 5-methylcytosine/pseudouridine, Test A): 609,545 pg/ml
G-CSF protein (pg/ml) HeLa cells (HeLa cells [3]; G-CSF mRNA, listed as 5-methylcytosine/pseudouridine, Test B): 358,182 pg/ml
G-CSF protein (pg/ml) HeLa cells (HeLa cells [3]; G-CSF mRNA, listed as 5-methylcytosine/pseudouridine, Test C): 882,500 pg/ml
G-CSF protein (pg/ml) HeLa cells (HeLa cells [3]; G-CSF mRNA, listed as 5-methylcytosine/pseudouridine, Test D): 87,045 pg/ml
G-CSF protein (pg/ml) HeLa cells (HeLa cells [3]; combination chemistries): 301,364 pg/ml
G-CSF Protein Expression [4, 6]: 2,632 pg/ml
G-CSF Protein Expression [4, 7]: 1,682 pg/ml
G-CSF Protein Expression [4, 8]: 1,595 pg/ml
G-CSF Protein Expression [4, 9]: 264 pg/mL
G-CSF Protein Expression [4, 10]: 1,955 pg/ml
G-CSF Protein Expression [4, 11]: 1,382 pg/ml
G-CSF Protein Expression [4, 12]: 1,432 pg/ml
G-CSF Protein Expression [4, 13]: 350 pg/mL
G-CSF Protein Expression [4, 14]: 1,373 pg/ml
G-CSF Protein Expression [4, 15]: 1,036 pg/ml
G-CSF Protein Expression [4, 16]: 955 pg/mL
G-CSF Protein Expression [4, 17]: 182 pg/mL
TNF-α Expression [5, 6]: 64 pg/mL
TNF-α Expression [5, 7]: 99 pg/mL
TNF-α Expression [5, 8]: 84 pg/mL
TNF-α Expression [5, 9]: 53 pg/mL
TNF-α Expression [5, 10]: 89 pg/mL
TNF-α Expression [5, 11]: 111 pg/mL
TNF-α Expression [5, 12]: 89 pg/mL
TNF-α Expression [5, 13]: 24 pg/mL
TNF-α Expression [5, 14]: 121 pg/mL
TNF-α Expression [5, 15]: 150 pg/mL
TNF-α Expression [5, 16]: 130 pg/mL
TNF-α Expression [5, 17]: 29 pg/mL
IFN-α Expression (interferon-alpha (IFN-α); [6]): 88 pg/mL
IFN-α Expression (interferon-alpha (IFN-α); [7]): 133 pg/mL
IFN-α Expression (interferon-alpha (IFN-α); [8]): 88 pg/mL
IFN-α Expression (interferon-alpha (IFN-α); [9]): 131 pg/mL
IFN-α Expression (interferon-alpha (IFN-α); [10]): 94 pg/mL
IFN-α Expression (interferon-alpha (IFN-α); [11]): 92 pg/mL
IFN-α Expression (interferon-alpha (IFN-α); [12]): 75 pg/mL
IFN-α Expression (interferon-alpha (IFN-α); [13]): 28 pg/mL
IFN-α Expression (interferon-alpha (IFN-α); [14]): 148 pg/mL
IFN-α Expression (interferon-alpha (IFN-α); [15]): 167 pg/mL
IFN-α Expression (interferon-alpha (IFN-α); [16]): 150 pg/mL
IFN-α Expression (interferon-alpha (IFN-α); [17]): 18 pg/mL

— US20180291335A1, “MODIFIED POLYNUCLEOTIDES FOR ALTERING CELL PHENOTYPE” (ModernaTX, Inc., priority 2012, published 2018)
